Data reported in patent US20040014194A1, “Beta-secretase crystals and methods for preparing and using the same” (Schering Corporation, priority 2002, published 2004).

Biological target: T1, β-secretase purified from Sf-9 cells (Homo sapiens, UniProt P56817)
T1 construct: made in house; host or cells: Sf9 insect cells, baculovirus (Bac-to-Bac), secreted into the medium
Assay: HPLC assay of β-secretase enzymatic activity with a peptide substrate derived from "Swedish" amyloid protein peptide
Format: biochemical
Settings: proBACE compared with mature BACE
Experimental: To assess the functionality of β-secretase purified from Sf-9 cells, an HPLC assay was developed using a peptide substrate derived from the sequence of “Swedish” amyloid protein peptide (Dreyer et al., (1994) Eur J. Biochem 224: 265-271). In these assays, ProBACE (SEQ ID NO: 2) and mature BACE (SEQ ID NO: 1) were tested.

B1: mature BACE: glycosylated, soluble fragment of mature human BACE, autoprocessed from proBACE at pH 4.0 (protein, listed as Homo sapiens)
chain: ETDEEPEEPGRRGSFVEMVDNLRGKSGQGYYVEMTVGSPPQTLNILVDTGSSNFAVGAAPHPFLHRYYQRQLSSTYRDLRKGVYVPYTQGKWEGELGTDLVSIPHGPNVTVRANIAAITESDKFFINGSNWEGILGLAYAEIARPDDSLEPFFDSLVKQTHVPNLFSLQLCGAGFPLNQSEVLASVGGSMIIGGIDHSLYTGSLWYTPIRREWYYEVIIVRVEINGQDLKMDCKEYNYDKSIVDSGTTNLRLPKKVFEAAVKSIKAASSTEKFPDGFWLGEQLVCWQAGTTPWNIFPVISLYLMGEVTNQSFRITILPQQYLRPVEDVATSQDDCYKFAISQSSTGTVMGAVIMEGFYVVFDRARKRIGFAVSACHVHDEFRTAAVEGPFVTLDMEDCGYNIPQTDESTLE
modifications: glycosylated
notes: glycosylated, soluble fragment of mature human BACE, autoprocessed from proBACE at pH 4.0
Question: How did the “enzymatic activity with substrate Biotin-KSEVNL*DAEFRK-Fluorescein” value turn out when B1 was run?
Answer: Its value is “equivalent”.

B2: proBACE: immature, soluble human β-secretase with amino-terminal propeptide, expressed in Sf9 insect cells (protein, listed as Homo sapiens)
chain: TQHGIRLPLRSGLGGAPLGLRLPRETDEEPEEPGRRGSFVEMVDNLRGKSGQGYYVEMTVGSPPQTLNILVDTGSSNFAVGAAPHPFLHRYYQRQLSSTYRDLRKGVYVPYTQGKWEGELGTDLVSIPHGPNVTVRANIAAITESDKFFINGSNWEGILGLAYAEIARPDDSLEPFFDSLVKQTHVPNLFSLQLCGAGFPLNQSEVLASVGGSMIIGGIDHSLYTGSLWYTPIRREWYYEVIIVRVEINGQDLKMDCKEYNYDKSIVDSGTTNLRLPKKVFEAAVKSIKAASSTEKFPDGFWLGEQLVCWQAGTTPWNIFPVISLYLMGEVTNQSFRITILPQQYLRPVEDVATSQDDCYKFAISQSSTGTVMGAVIMEGFYVVFDRARKRIGFAVSACHVHDEFRTAAVEGPFVTLDMEDCGYNIPQTDESTLE
Question: With B2 as the molecule, how does the “enzymatic activity with substrate Biotin-KSEVNL*DAEFRK-Fluorescein” value read?
Answer: Its value is “equivalent”.
